Laboratory results from paper PMC9482650, “Quantitative fragmentomics allow affinity mapping of interactomes” (Nature Communications, 2022).

T1: ARHGEF11, O15085
T1 sequence (O15085 42-136, limits assumed, looked up): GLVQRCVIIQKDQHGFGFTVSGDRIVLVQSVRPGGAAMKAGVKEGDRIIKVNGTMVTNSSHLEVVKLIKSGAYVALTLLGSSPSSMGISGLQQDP

T2: CARD11, Q9BXL7
T2 sequence (Q9BXL7 662-765, limits assumed, looked up): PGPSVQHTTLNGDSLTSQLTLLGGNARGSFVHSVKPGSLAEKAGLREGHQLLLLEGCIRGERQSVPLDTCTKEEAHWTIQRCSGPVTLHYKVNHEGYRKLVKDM

T3: DVL3, Q92997
T3 sequence (Q92997 244-331, limits assumed, looked up): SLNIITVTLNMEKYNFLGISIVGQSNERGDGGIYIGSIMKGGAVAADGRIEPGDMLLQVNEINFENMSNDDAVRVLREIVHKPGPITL

T4: FRMPD1, Q5SYB0
T4 sequence (Q5SYB0 52-145, limits assumed, looked up): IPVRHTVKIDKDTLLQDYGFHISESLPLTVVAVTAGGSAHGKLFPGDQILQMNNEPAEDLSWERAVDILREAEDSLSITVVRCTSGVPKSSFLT

T5: GRIP1_4, Q9Y3R0
T5 sequence (Q9Y3R0 467-571, limits assumed, looked up): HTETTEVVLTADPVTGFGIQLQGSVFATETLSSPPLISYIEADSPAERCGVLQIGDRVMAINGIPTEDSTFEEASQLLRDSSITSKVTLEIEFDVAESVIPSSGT

T6: HTRA4, P83105
T6 sequence (P83105 378-476, limits assumed, looked up): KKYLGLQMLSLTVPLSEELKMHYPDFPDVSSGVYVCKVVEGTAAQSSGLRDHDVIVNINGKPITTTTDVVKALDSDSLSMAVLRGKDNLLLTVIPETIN

T7: LNX2_2, Q8N448
T7 sequence (Q8N448 334-432, limits assumed, looked up): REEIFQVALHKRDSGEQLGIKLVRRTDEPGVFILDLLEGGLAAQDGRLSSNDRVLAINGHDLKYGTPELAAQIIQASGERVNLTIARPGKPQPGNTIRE

T8: LNX2_3, Q8N448
T8 sequence (Q8N448 463-564, limits assumed, looked up): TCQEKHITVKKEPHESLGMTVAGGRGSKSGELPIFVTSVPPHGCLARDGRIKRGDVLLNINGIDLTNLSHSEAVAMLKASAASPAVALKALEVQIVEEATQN

T9: PDZD2_2, O15018
T9 sequence (O15018 329-429, limits assumed, looked up): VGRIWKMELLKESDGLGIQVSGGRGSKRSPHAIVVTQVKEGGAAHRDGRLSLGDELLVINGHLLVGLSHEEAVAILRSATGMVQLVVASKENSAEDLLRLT

T10: PDZRN3_1, Q9UPQ7
T10 sequence (Q9UPQ7 244-349, limits assumed, looked up): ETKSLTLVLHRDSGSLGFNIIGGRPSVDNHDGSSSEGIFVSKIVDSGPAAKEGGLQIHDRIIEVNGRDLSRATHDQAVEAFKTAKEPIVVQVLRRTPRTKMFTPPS

T11: PTPN13_1, Q12923
T11 sequence (Q12923 1088-1188, limits assumed, looked up): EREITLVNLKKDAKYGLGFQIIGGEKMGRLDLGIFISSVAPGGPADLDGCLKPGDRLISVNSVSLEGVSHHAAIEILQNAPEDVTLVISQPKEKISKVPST

T12: RAPGEF6, Q8TEU7
T12 sequence (Q8TEU7 525-625, limits assumed, looked up): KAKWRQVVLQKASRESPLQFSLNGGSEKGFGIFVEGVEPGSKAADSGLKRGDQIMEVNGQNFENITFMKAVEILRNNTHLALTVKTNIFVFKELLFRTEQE


Key:
Assay in all cases: holdup assay
Parameters in all cases: key: below the threshold = too weak to quantify, mostly under pKd 3.1 to 4
Settings in all cases: plain residues with an end cap or a label only (N-terminal biotin on a linker: ado-ado)
ARHGEF11, O15085 = target: T1, ARHGEF11, O15085
CARD11, Q9BXL7 = target: T2, CARD11, Q9BXL7
DLG5_1, Q8TDM6 = target: DLG5_1, Q8TDM6
Sequence of DLG5_1, Q8TDM6 (Q8TDM6 617-713): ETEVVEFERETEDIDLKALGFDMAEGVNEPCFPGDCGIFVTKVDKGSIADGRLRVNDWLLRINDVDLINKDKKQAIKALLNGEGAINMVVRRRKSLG

DVL3, Q92997 = target: T3, DVL3, Q92997
FRMPD1, Q5SYB0 = target: T4, FRMPD1, Q5SYB0
GORASP1, Q9BQQ3 = target: GORASP1, Q9BQQ3
Sequence of GORASP1, Q9BQQ3 (Q9BQQ3 1-208): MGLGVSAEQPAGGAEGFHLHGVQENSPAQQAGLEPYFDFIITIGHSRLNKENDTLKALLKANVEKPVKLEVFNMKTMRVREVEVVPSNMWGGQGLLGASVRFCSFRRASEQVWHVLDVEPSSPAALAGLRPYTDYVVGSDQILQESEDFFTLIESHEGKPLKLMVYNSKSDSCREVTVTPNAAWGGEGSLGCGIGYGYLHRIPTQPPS

GRID2IP_2, A4D2P6 = target: GRID2IP_2, A4D2P6
Sequence of GRID2IP_2, A4D2P6 (A4D2P6 272-370): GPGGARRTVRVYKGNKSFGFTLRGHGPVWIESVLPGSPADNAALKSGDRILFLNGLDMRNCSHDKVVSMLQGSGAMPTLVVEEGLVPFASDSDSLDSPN

GRIP1_4, Q9Y3R0 = target: T5, GRIP1_4, Q9Y3R0
GRIP2_3, Q9C0E4 = target: GRIP2_3, Q9C0E4
Sequence of GRIP2_3, Q9C0E4 (Q9C0E4 238-339): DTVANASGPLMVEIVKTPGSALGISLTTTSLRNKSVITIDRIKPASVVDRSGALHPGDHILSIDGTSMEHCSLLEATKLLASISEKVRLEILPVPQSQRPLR

GRIP2_6, Q9C0E4 = target: GRIP2_6, Q9C0E4
Sequence of GRIP2_6, Q9C0E4 (Q9C0E4 648-740): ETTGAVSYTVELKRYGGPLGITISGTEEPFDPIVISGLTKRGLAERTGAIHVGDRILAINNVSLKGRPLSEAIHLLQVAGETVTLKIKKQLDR

HTRA4, P83105 = target: T6, HTRA4, P83105
Inadl_3, Q8NI35 = target: Inadl_3, Q8NI35
Sequence of Inadl_3, Q8NI35 (Q8NI35 359-469): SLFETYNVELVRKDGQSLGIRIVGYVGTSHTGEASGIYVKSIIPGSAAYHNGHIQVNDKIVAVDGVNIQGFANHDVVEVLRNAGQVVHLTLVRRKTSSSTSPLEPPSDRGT

LIMK2, P53671 = target: LIMK2, P53671
Sequence of LIMK2, P53671 (P53671 143-248): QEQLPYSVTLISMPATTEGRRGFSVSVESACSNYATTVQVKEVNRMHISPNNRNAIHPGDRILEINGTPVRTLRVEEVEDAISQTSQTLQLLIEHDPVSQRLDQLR

LNX1_3, Q8TBB1 = target: LNX1_3, Q8TBB1
Sequence of LNX1_3, Q8TBB1 (Q8TBB1 500-596): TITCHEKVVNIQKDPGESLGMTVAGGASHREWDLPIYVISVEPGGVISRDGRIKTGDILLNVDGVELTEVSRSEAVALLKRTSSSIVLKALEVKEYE

LNX2_2, Q8N448 = target: T7, LNX2_2, Q8N448
LNX2_3, Q8N448 = target: T8, LNX2_3, Q8N448
MAGI1_2, Q96QZ7 = target: MAGI1_2, Q96QZ7
Sequence of MAGI1_2, Q96QZ7 (Q96QZ7 456-580): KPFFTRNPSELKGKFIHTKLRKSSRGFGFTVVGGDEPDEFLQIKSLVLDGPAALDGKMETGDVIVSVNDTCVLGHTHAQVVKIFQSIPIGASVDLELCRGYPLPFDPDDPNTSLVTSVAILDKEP

MAGI2_5, Q86UL8 = target: MAGI2_5, Q86UL8
Sequence of MAGI2_5, Q86UL8 (Q86UL8 915-1017): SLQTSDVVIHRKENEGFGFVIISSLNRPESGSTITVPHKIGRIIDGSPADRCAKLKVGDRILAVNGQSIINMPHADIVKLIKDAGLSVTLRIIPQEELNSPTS

NHERF4_2, Q86UT5 = target: NHERF4_2, Q86UT5
Sequence of NHERF4_2, Q86UT5 (Q86UT5 220-308): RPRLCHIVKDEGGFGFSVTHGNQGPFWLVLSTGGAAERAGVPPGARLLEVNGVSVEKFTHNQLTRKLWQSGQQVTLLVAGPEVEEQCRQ

NOS1, P29475 = target: NOS1, P29475
Sequence of NOS1, P29475 (P29475 9-101): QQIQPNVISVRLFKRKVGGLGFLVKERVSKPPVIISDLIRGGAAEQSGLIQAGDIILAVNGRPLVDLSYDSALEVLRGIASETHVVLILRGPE

PARD3_3, Q8TEW0 = target: PARD3_3, Q8TEW0
Sequence of PARD3_3, Q8TEW0 (Q8TEW0 582-685): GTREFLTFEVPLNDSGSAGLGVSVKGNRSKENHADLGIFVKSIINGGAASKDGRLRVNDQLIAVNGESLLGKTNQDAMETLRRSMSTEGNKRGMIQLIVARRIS

PDZD2_2, O15018 = target: T9, PDZD2_2, O15018
PDZRN3_1, Q9UPQ7 = target: T10, PDZRN3_1, Q9UPQ7
PTPN13_1, Q12923 = target: T11, PTPN13_1, Q12923
RAPGEF6, Q8TEU7 = target: T12, RAPGEF6, Q8TEU7
SNX27, Q96L92 = target: SNX27, Q96L92

Row | Binder | pKd (ARHGEF11, O15085) | pKd (CARD11, Q9BXL7) | pKd (DLG5_1, Q8TDM6) | pKd (DVL3, Q92997) | pKd (FRMPD1, Q5SYB0) | pKd (GORASP1, Q9BQQ3) | pKd (GRID2IP_2, A4D2P6) | pKd (GRIP1_4, Q9Y3R0) | pKd (GRIP2_3, Q9C0E4) | pKd (GRIP2_6, Q9C0E4) | pKd (HTRA4, P83105) | pKd (Inadl_3, Q8NI35) | pKd (LIMK2, P53671) | pKd (LNX1_3, Q8TBB1) | pKd (LNX2_2, Q8N448) | pKd (LNX2_3, Q8N448) | pKd (MAGI1_2, Q96QZ7) | pKd (MAGI2_5, Q86UL8) | pKd (NHERF4_2, Q86UT5) | pKd (NOS1, P29475) | also measured
1 | ARGPPRESEV [FAM110D, Q8TAY7] | 4 | below the threshold | below the threshold | below the threshold | below the threshold | below the threshold | below the threshold | below the threshold | below the threshold | below the threshold | 3.87 | below the threshold | below the threshold | below the threshold | below the threshold | below the threshold | 4.32 | 3.9 | below the threshold | 3.77 | pKd (PARD3_3, Q8TEW0): below the threshold; pKd (PDZD2_2, O15018): 4.83; pKd (PDZRN3_1, Q9UPQ7): 5.07; pKd (PTPN13_1, Q12923): below the threshold; pKd (RAPGEF6, Q8TEU7): below the threshold; pKd (SNX27, Q96L92): 4.65
2 | NTLNRKTTPV [CACNG8, Q8WXS5] | 4.08 | below the threshold | below the threshold | below the threshold | below the threshold | below the threshold | 3.94 | below the threshold | below the threshold | below the threshold | 3.94 | below the threshold | below the threshold | below the threshold | below the threshold | below the threshold | 4.64 | below the threshold | 3.53 | 4.04 | pKd (PARD3_3, Q8TEW0): below the threshold; pKd (PDZD2_2, O15018): 3.81; pKd (PDZRN3_1, Q9UPQ7): 3.97; pKd (PTPN13_1, Q12923): below the threshold; pKd (RAPGEF6, Q8TEU7): below the threshold; pKd (SNX27, Q96L92): 4.98
3 | PTPDLPQTRV [KLHDC7A, Q5VTJ3] | 4.16 | below the threshold | below the threshold | below the threshold | below the threshold | below the threshold | 4.26 | below the threshold | below the threshold | below the threshold | 3.87 | below the threshold | below the threshold | below the threshold | below the threshold | below the threshold | below the threshold | below the threshold | below the threshold | below the threshold | pKd (PARD3_3, Q8TEW0): below the threshold; pKd (PDZD2_2, O15018): 3.75; pKd (PDZRN3_1, Q9UPQ7): 3.53; pKd (PTPN13_1, Q12923): below the threshold; pKd (RAPGEF6, Q8TEU7): below the threshold; pKd (SNX27, Q96L92): 4.21
4 | ARSAAASNYV [CLDN4, O14493] | 3.8 | below the threshold | below the threshold | 3.66 | below the threshold | 3.69 | 3.56 | below the threshold | below the threshold | below the threshold | 3.98 | below the threshold | below the threshold | below the threshold | 4.04 | below the threshold | below the threshold | below the threshold | below the threshold | 3.82 | pKd (PARD3_3, Q8TEW0): 3.51; pKd (PDZD2_2, O15018): 4.49; pKd (PDZRN3_1, Q9UPQ7): below the threshold; pKd (PTPN13_1, Q12923): below the threshold; pKd (RAPGEF6, Q8TEU7): below the threshold; pKd (SNX27, Q96L92): 3.53
